Reference: the supplement of paper PMC7125110
± gives the standard error. Fewer inactive variants are shown than the library holds.

B1: glmS ribozyme (parent)
chain: AUAAAAGCGCCAGAACUACAGAAAUGUAGUUGACGAGGAGGAGGUUUAUCGAAUUUUCGGCGGAUGCCUCCAAA

Tests used:
Conditions in all cases: with glucosamine-6-phosphate
glucosamine-6-phosphate [1] = variants of: B1; assay: self-cleavage kobs at 160 uM GlcN6P; higher = faster cleavage; RNA array
Method in brief: (§1)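 Weighted Michaelis–Menten fits across concentrations supplied kcat and KM, based on kobs from one- or two-exponential decay fits to normalised per-tile medians. The data came from barcoded ribozyme variants transcribed in situ by E. coli RNA polymerase on sequenced MiSeq chips and tracked at 37 °C by a hybridised Cy3 probe. Glucosamine-6-phosphate (40 μM to 10 mM) in HEPES/KCl/Mg(OAc)2 buffer was flowed in.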

glucosamine-6-phosphate [2] = variants of: B1; assay: self-cleavage kobs at 640 uM GlcN6P; higher = faster cleavage; RNA array
Method in brief: as §1

glucosamine-6-phosphate [3] = variants of: B1; assay: self-cleavage kobs at 2500 uM GlcN6P; higher = faster cleavage; RNA array
Method in brief: as §1

glucosamine-6-phosphate [4] = variants of: B1; assay: self-cleavage kobs at 10000 uM GlcN6P; higher = faster cleavage; RNA array
Method in brief: as §1

glucosamine-6-phosphate [5] = variants of: B1; assay: self-cleavage kobs at 40 uM GlcN6P; higher = faster cleavage; RNA array
Method in brief: as §1

Variant	self-cleavage kobs at 160 uM GlcN6P (glucosamine-6-phosphate [1]) [s⁻¹]	self-cleavage kobs at 640 uM GlcN6P (glucosamine-6-phosphate [2]) [s⁻¹]	self-cleavage kobs at 2500 uM GlcN6P (glucosamine-6-phosphate [3]) [s⁻¹]	self-cleavage kobs at 10000 uM GlcN6P (glucosamine-6-phosphate [4]) [s⁻¹]	self-cleavage kobs at 40 uM GlcN6P (glucosamine-6-phosphate [5]) [s⁻¹]
G44U C61A	< 1e-05	< 1e-05	< 1e-05	< 1e-05	
G7U U55G U57G C61A A64C C68U	< 1e-05		< 1e-05		
A15C A39U U47A U54G	4.07e-05 ± 1.7e-05	0.000184 ± 4.1e-05	0.000635 ± 8.5e-05		
G41C G63A	< 1e-05	< 1e-05			
G29U G37C A42C U46A	< 1e-05	< 1e-05			
U55G C71U	0.00128 ± 0.00022	0.00353 ± 0.0005	0.0044 ± 0.00066	0.034 ± 0.0078	0.00104 ± 0.00015
C11U U46G C50G	5.55e-05 ± 1.9e-05	6.4e-05 ± 1.8e-05			
A36U G43A A52U G63A C67A	< 1e-05				
A14U G43U G51C	< 1e-05				
U30A G44C	< 1e-05				
A42C C50U U69A				< 1e-05	< 1e-05
G37U G44A G66U	< 1e-05				
C11A A48U	< 1e-05	< 1e-05	< 1e-05		< 1e-05
C8U G38U A39C C58A					< 1e-05
G35C U55A	< 1e-05	< 1e-05	< 1e-05		
G13C A52G C70G	0.000297 ± 0.00012	0.000164 ± 5.2e-05	7.21e-05 ± 3e-05		
A14G U56G U57C	3.78e-05 ± 1.6e-05	5.18e-05 ± 1.5e-05	0.000269 ± 8.2e-05		
G43A A52U	< 1e-05	< 1e-05	< 1e-05		
A52C C71G		< 1e-05	< 1e-05		< 1e-05
C50U G51U				< 1e-05	< 1e-05
G13U G59U	< 1e-05	< 1e-05		< 1e-05	< 1e-05
U31G A64U	< 1e-05	< 1e-05	< 1e-05		< 1e-05
G7U U69C	< 1e-05		< 1e-05		
A48G A64U	< 1e-05	< 1e-05		< 1e-05	< 1e-05

Variant	self-cleavage kobs at 160 uM GlcN6P (glucosamine-6-phosphate [1]) [s⁻¹]	self-cleavage kobs at 640 uM GlcN6P (glucosamine-6-phosphate [2]) [s⁻¹]	self-cleavage kobs at 2500 uM GlcN6P (glucosamine-6-phosphate [3]) [s⁻¹]	self-cleavage kobs at 10000 uM GlcN6P (glucosamine-6-phosphate [4]) [s⁻¹]	self-cleavage kobs at 40 uM GlcN6P (glucosamine-6-phosphate [5]) [s⁻¹]
A14C G60U	< 1e-05	< 1e-05		< 1e-05	< 1e-05
A36G C58A G60A	< 1e-05	< 1e-05		< 1e-05	
G7A G9U C58A	< 1e-05	< 1e-05			
C10U A39U C67G	< 1e-05	< 1e-05			
A39G G51U G59U	< 1e-05	< 1e-05		< 1e-05	
C34U G40C U47A C67G	< 1e-05				
A14C G32U A52C	< 1e-05	< 1e-05	< 1e-05		
C8A A39G A52U	< 1e-05	< 1e-05	< 1e-05		
U31G G32A	2.88e-05 ± 1.4e-05	0.000366 ± 7.2e-05	0.000689 ± 0.00016	0.00185 ± 0.00031	
A12U U46C C67A	0.00011 ± 2.6e-05		0.00113 ± 0.0002		
G9C A14G G59U	< 1e-05				
A14C A36C A52U	< 1e-05	< 1e-05		< 1e-05	
A14C A42C C70G	< 1e-05				
C50G G60A A64G	8.18e-05 ± 2.1e-05	6.58e-05 ± 2.3e-05	0.000134 ± 5.2e-05		
A14G G35U G60A C68G	< 1e-05				
G9U U49G	< 1e-05	< 1e-05		< 1e-05	< 1e-05
A15G U45A U56G A64C C70A	< 1e-05	< 1e-05	< 1e-05		
U31C U54A C67G	3.53e-05 ± 9.2e-06	8.75e-05 ± 2.2e-05	7.96e-05 ± 1.7e-05		
G9U G40C G51A	< 1e-05	< 1e-05	< 1e-05		
C11U C34A		< 1e-05			< 1e-05
G7U A12G	< 1e-05	< 1e-05		< 1e-05	< 1e-05
G13C G37A C50U G59C		< 1e-05	< 1e-05		< 1e-05
C11G U49G U57C	< 1e-05				
G13U C34A G40U C58A	< 1e-05	< 1e-05			
